These results are taken from US9156916.

Test [1] addresses human surface membrane immunoglobulin D (smIgD) (human) (UniProt P01880). In words: cell-based or functional assay.
For test [2] the target is unchanged. Briefly: flow cytometry, dual labelling of human PBMC (CD3 and IgD).
Test [3] shares this target. In words: flow cytometry, dual labelling of human PBMC (CD14 and IgD). For orientation: Flow cytometry measures light scatter and fluorescence of single cells or particles in a stream.

Sequence of UniProt P01880 (P01880 whole entry): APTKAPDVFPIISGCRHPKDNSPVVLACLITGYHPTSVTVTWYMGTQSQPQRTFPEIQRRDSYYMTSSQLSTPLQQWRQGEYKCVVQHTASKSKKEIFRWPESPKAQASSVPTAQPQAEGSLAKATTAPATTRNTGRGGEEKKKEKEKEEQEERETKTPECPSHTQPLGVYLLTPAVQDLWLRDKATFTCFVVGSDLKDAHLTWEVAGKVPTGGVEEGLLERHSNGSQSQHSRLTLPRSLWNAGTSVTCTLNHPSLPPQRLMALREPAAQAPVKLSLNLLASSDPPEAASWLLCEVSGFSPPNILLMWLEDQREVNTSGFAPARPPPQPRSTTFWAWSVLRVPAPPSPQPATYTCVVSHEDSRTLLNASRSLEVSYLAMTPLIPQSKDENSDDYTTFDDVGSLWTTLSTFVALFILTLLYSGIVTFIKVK

In test [1], “anti-human smIgD antibody (clone STAR94, Serotec, Oxford, UK)” registered a proportion of human monocyte population expressing intra-cellular TNF-α after LPS, antibody given 24 hrs before LPS (flow cytometry) of 5% and a proportion of human monocyte population expressing intra-cellular TNF-α, antibody given concurrently with LPS for 4 hours (flow cytometry) of 26%.

In test [2], “goat FITC-conjugated anti-human IgD antibody (clone STAR94F)” displayed a percent of CD3+ T-cells labelled for smIgD of 10%. The substance further came in with a percent of CD14+ cells labelled for smIgD in test [3] of 54%.
